Data set [1] has as its target GFP-FR (Folate Receptor), GPI-anchored, in MDCK cells. Description: Number and Brightness.
Data set [2] is described as follows: Number and Brightness. The settings on record: other: Number and Brightness (N&B) analysis.
For data set [3], the target named is GFP-FR, in CHO cells. Nature of the data set: Number and Brightness.

As to “GFP-FR (Folate Receptor), GPI-anchored, in MDCK cells”, the average B value (brightness) in data set [1] is 1.29. Besides, the “percent of GFP-FR in aggregates of three-four molecules” value in data set [2] is recorded as “about 30-35% of GFP-FR”.
In data set [3], GFP-FR, in CHO cells came in with an average B value (brightness) of 1.36 and a percent of GFP-FR in clusters of 3 to 4 or 5 molecules of 50%.

These data come from article PMC4027978.
